According to patent US7323170:

Molecular target: human B7.1, membrane associated (human) (UniProt P33681)
Assay: cell-based or functional assay

human B7.1, membrane associated (human), sequence (P33681 35-288): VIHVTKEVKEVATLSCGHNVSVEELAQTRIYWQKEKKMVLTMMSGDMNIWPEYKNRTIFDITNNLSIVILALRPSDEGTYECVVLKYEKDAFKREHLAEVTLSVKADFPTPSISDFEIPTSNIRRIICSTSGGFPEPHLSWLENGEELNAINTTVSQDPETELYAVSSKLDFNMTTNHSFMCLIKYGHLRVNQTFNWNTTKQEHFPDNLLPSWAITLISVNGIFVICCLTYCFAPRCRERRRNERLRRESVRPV

- inhibition of IL-2 production in mixed lymphocyte reaction (concentration at which inhibitory): 10 µg/mL
Substance: murine anti-B7.1 monoclonal antibody L307.4
